{
  "source": "paper PMC8511952",
  "assay_in_all_cases": "fluorescence anisotropy",
  "details_in_all_cases": "unmodified in vitro transcript; FA: 5 nM labeled tRNA, 25 mM Tris-HCl pH 8, 50 mM NaCl, 1 mM MgCl2, room temperature, 30 min",
  "key": {"[1]": {"system": "MBP-ERS2.5W E205G (Homo sapiens)"}, "[2]": {"system": "MBP-ERSRC E205G (Homo sapiens)"}, "[3]": {"system": "MBP-ERS2.5W P14R (Homo sapiens)"}},
  "data": [
    {"substance": "tRNAGlu(TTC)", "values": [
      {"measurement": "Kd", "setting": "[1]", "value": 54.3, "unit": "nM"},
      {"measurement": "Kd", "setting": "[2]", "value": 277, "unit": "nM"},
      {"measurement": "Kd", "setting": "[3]", "value": 94, "unit": "nM"}
    ]}
  ]
}
